{"source": "the RNAGym collection of RNA variant scans (doi:10.7554/elife.80360)", "parents": {"B1": {"name": "Hairpin Ribozyme (parent)", "chain": "GUCCUCUUUCACGUGCGCGUGAAAGAGAGAAGUGAACCAGAGAAACACACGUUGUGGUAUAUUACCUGGUA"}}, "data": [{"variants_of": "B1", "assay": "self-cleavage, relative activity (ratio to wild type); higher = more cleavage; co-transcriptional", "values": [{"variant": "U8A C12A", "self-cleavage": 0.606}, {"variant": "U8C A43U", "self-cleavage": 0.241}, {"variant": "U8C A43G", "self-cleavage": 0.16}, {"variant": "U7G A61U", "self-cleavage": 0.203}, {"variant": "U7G C10G", "self-cleavage": 0.643}, {"variant": "U7G C10A", "self-cleavage": 0.765}, {"variant": "U7G C10U", "self-cleavage": 0.64}, {"variant": "U8A A59U", "self-cleavage": 0.165}, {"variant": "U8A G54A", "self-cleavage": 0.396}, {"variant": "U8G U55G", "self-cleavage": 0.223}, {"variant": "U8C G57U", "self-cleavage": 0.368}, {"variant": "U7C G40A", "self-cleavage": 0.334}, {"variant": "U8A G40U", "self-cleavage": 0.109}, {"variant": "U7C A59C", "self-cleavage": 0.251}, {"variant": "U8G A26G", "self-cleavage": 0.673}, {"variant": "U8C C66U", "self-cleavage": 0.273}, {"variant": "U8C C66A", "self-cleavage": 0.19}, {"variant": "U7C C16G", "self-cleavage": 0.456}, {"variant": "U7C C16A", "self-cleavage": 0.913}, {"variant": "U8C A24C", "self-cleavage": 0.196}, {"variant": "U8C A24G", "self-cleavage": 0.502}, {"variant": "U7G A47U", "self-cleavage": 0.0788}, {"variant": "U7G A47C", "self-cleavage": 0.234}, {"variant": "U7A U58A", "self-cleavage": 0.58}, {"variant": "U7C A45C", "self-cleavage": 0.136}, {"variant": "U7C A45G", "self-cleavage": 0.104}, {"variant": "U8G C12U", "self-cleavage": 0.447}, {"variant": "U8G C12A", "self-cleavage": 0.395}, {"variant": "U8C C37G", "self-cleavage": 0.214}, {"variant": "U7C C46G", "self-cleavage": 0.124}, {"variant": "U7G A22G", "self-cleavage": 0.908}, {"variant": "U7G A22C", "self-cleavage": 0.515}, {"variant": "U7C U62G", "self-cleavage": 0.179}, {"variant": "U8C G21U", "self-cleavage": 0.142}, {"variant": "U8C A39G", "self-cleavage": 0.201}, {"variant": "U8C A39U", "self-cleavage": 0.25}, {"variant": "U8C G34U", "self-cleavage": 1.32}, {"variant": "U7C U67G", "self-cleavage": 0.171}, {"variant": "U7C", "self-cleavage": 0.894}, {"variant": "U7G", "self-cleavage": 0.875}, {"variant": "U7C G42A", "self-cleavage": 0.287}, {"variant": "U7C G42C", "self-cleavage": 0.245}, {"variant": "U7C G42U", "self-cleavage": 0.205}, {"variant": "U8C C50U", "self-cleavage": 0.172}, {"variant": "U8A G29U", "self-cleavage": 0.0651}, {"variant": "U8A G29C", "self-cleavage": 0.104}, {"variant": "U8G U63G", "self-cleavage": 0.172}, {"variant": "U8G U63C", "self-cleavage": 0.155}, {"variant": "U8C C48A", "self-cleavage": 0.136}, {"variant": "U8C U63G", "self-cleavage": 0.188}, {"variant": "U7C U70C", "self-cleavage": 1.04}, {"variant": "U7C U70A", "self-cleavage": 1.02}, {"variant": "U8G A23G", "self-cleavage": 0.759}, {"variant": "U7G C12G", "self-cleavage": 0.658}, {"variant": "U7C G27C", "self-cleavage": 0.172}, {"variant": "U7C G27A", "self-cleavage": 0.386}, {"variant": "U8G A24U", "self-cleavage": 0.595}, {"variant": "U8G A24C", "self-cleavage": 0.592}, {"variant": "U8A G17A", "self-cleavage": 0.742}, {"variant": "U8A C46A", "self-cleavage": 0.133}, {"variant": "U8A C46U", "self-cleavage": 0.0775}, {"variant": "U7G C37U", "self-cleavage": 0.531}, {"variant": "U7G C37G", "self-cleavage": 0.239}, {"variant": "U8A G25C", "self-cleavage": 0.155}, {"variant": "U7C A49C", "self-cleavage": 0.0316}, {"variant": "U8A G51U", "self-cleavage": 0.92}, {"variant": "U8A G51A", "self-cleavage": 0.749}, {"variant": "U8C A11C", "self-cleavage": 0.289}, {"variant": "U8G A61C", "self-cleavage": 0.189}, {"variant": "U8G A61U", "self-cleavage": 0.184}, {"variant": "U7G G25A", "self-cleavage": 0.316}, {"variant": "U7G A45U", "self-cleavage": 0.2}, {"variant": "U7G G42U", "self-cleavage": 0.299}, {"variant": "U8G A28C", "self-cleavage": 0.433}, {"variant": "U8G A28U", "self-cleavage": 0.514}, {"variant": "U8G G68U", "self-cleavage": 0.268}, {"variant": "U8G G68A", "self-cleavage": 0.119}, {"variant": "U8A A43U", "self-cleavage": 0.106}, {"variant": "U9A A23U", "self-cleavage": 0.472}, {"variant": "U8G G21U", "self-cleavage": 0.523}, {"variant": "U8C C16G", "self-cleavage": 0.651}, {"variant": "U8C C16U", "self-cleavage": 0.734}, {"variant": "U8C C16A", "self-cleavage": 0.84}]}]}
